The results in this text go back to patent US10221404B2, “Method for modifying characteristics of a lipase” (Novozymes A/S, priority 2014, dated 2019).

A short description of test [1]: AMSA wash performance after activation with detergent and/or protease. More on the design: key to No (RP) / Det (RP) / Sav (RP) / Det + Sav (RP): wash performance relative to reference lipase (Lipolase), RP ratio. As for the experimental part:
(§1) Washing experiments were performed using Automatic Mechanical Stress Assay (AMSA) in order to assess the wash performance in laundry. The AMSA plate has a number of slots for test solutions and a lid firmly squeezing the laundry sample, the textile to be washed against all the slot openings. During the washing time, the plate, test solutions, textile and lid were vigorously shaken to bring the test solution in contact with the textile and apply mechanical stress in a regular, periodic oscillating manner. For further description see WO02/42740 especially the paragraph “Special method embodiments” at page 23-24.
(§2) The laundry experiments were conducted in Model Detergent B, pH8. The experimental conditions are specified below:
(§3) Final adjustments to the specified pH were done with NaOH or citric acid. Water hardness was adjusted to 15° dH by addition of CaCl2 and MgCl2 (Ca^2+:Mg^2+=4:1) to the test system.
(§4) After washing the textiles were flushed in tap water and excess water was removed from the textiles using filter paper and immediately thereafter the textiles were dried at 85° C. for 5 min.
(§5) The wash performance was measured as the color change of the washed soiled textile. The soil was cream mixed with turmeric. Turmeric contains the colorant curcumin, which function as a pH indicator by having pH dependent color change. Lipase activity leads to release of free fatty acids from the cream acylglycerides and this leads to pH decrease and thereby color change of the curcumin pH indicator. Lipase wash performance can therefore be expressed as the extent of color change of light reflected-emitted from the washed soiled textile when illuminated with white light.
(§6) Color measurements were made with a professional flatbed scanner (EPSON EXPRESSION 10000XL, Atea NS, Lautrupvang 6, 2750 Ballerup, Denmark), which was used to capture an image of the washed soiled textile. To extract a value for the light intensity from the scanned images, 24-bit pixel values from the image were converted into values for red, green and blue (RGB).
(§7) Color change due to lipase activity was measured as the increase in the reflection-emitting of green light (G) relative to the sum of reflected-emitted blue (B) and red (R) light. The wash performance (RP(Wash)) of a lipase relative to a reference lipase (Lipolase™) was calculated as: RP(Wash)=(G/(B+R)(tested lipase)−G/(B+R)(no enzyme))/(G/(B+R)(lipase ref.)−G/(B+R)(no enzyme)).
Wild type RmL without or with propeptide respectively were submitted to no, detergent, protease or detergent+protease treatment prior to performance test in AMSA to test the activation level of the lipase after the treatment. […] […] Wash performance of all samples were determined by Automatic Mechanical Stress Assay (AMSA) as described above.

The nature of test [2]: Hydrolytic activity, kinetic assay with p-nitrophenyl acyl esters. It is filed as biochemical. The conditions noted are these: substrates C3, C6, C10, C12, C16 at 1 mM; 50 mM Tris pH 7.7, 0.4% TritonX-100; 405 nm for 5 minutes. Here is the method:
The hydrolytic activity of RmL with and without propeptide on various fatty acids was investigated in a kinetic assay using p-nitrophenyl acyl esters as substrate. The 100 mM stock solutions in DMSO of the substrates: p-Nitrophenyl butyrate (C3), p-Nitrophenyl caproate (C6), p-Nitrophenyl caprate (C10), p-Nitrophenyl laurate (C12) and p-Nitrophenyl palmitate (C16) (all from Sigma-Aldrich Danmark NS, Kirkebjerg Allé 84, 2605 Brondby; Cat. no.: C3:N-9876, C6: N-0502, C10: N-0252, C12: N-2002, C16: N-2752) were diluted to a final concentration of 1 mM into assay buffer (50 mM Tris; pH 7.7; 0.4% TritonX-100).
RmL with and without propeptide and appropriate controls: Buffer (negative), Lipex™ (positive) RmL with and without propeptide in 50 mM Hepes pH8.0; 10 ppm TritonX-100; 20 mM CaCl2 were added to the substrate solution in the following final concentrations: 0.01 mg/mL; 5×10^−3 mg/mL; […]; and 1.25×10^−4 mg/mL in 96-well NUNC plates (Cat. No: 260836, Kamstrupvej 90, DK-4000, Roskilde). Release of p-nitrophenol by hydrolysis of p-nitrophenyl acyl was monitored at 405 nm for 5 minutes in 10 second intervals on a Spectra max 190 (Molecular Devices GmbH, Bismarckring 39, 88400 Biberach an der Riss, GERMANY).

Test [3] is described as follows: AMSA wash performance, specificity of inhibitory effect of propeptide. The conditions noted are these: for With inhibitor RP (wash): propeptide SEQ ID No: 4 in 320:1 molar ratio, 3 hours at 4° C., normalized to wash performance without inhibitor; for No inhibitor RP (wash): without propeptide SEQ ID No: 4, normalized per lipase. Here is the method:
as §1, §2, §3, §4, §5, §6, §7
The inhibitory specificity of the isolated propeptide was determined by mixing the isolated propeptide in a 320:1 molar ratio with 5 different lipases including the active RmL. All enzymes were diluted in 10 mM succinic acid buffer, pH6.5, to a concentration of 1.5 uM and were mixed (1:1) with purified propeptide dilutions. After 3 hours incubation at 4° C. the lipase performance of the incubated lipase-inhibitor samples were determined by Automatic Mechanical Stress Assay (AMSA) as described above. The relative wash performance “RP(wash)” is for each lipase normalized to the wash performance without inhibitor.

B1: RmL with propeptide: Rhizomucor miehei lipase with its native N-terminal propeptide non-covalently bound (inactive RmL) (protein, UniProt P19515 25-363, looked up)
pro-form: VPIKRQSNSTVDSLPPLIPSRTSAPSSSPSTTDPEAPAMSRNGPLPSDVETKYGMALNATSYPDSVVQAMSIDGGIRAATSQEINELTYYTTLSANSYCRTVIPGATWDCIHCDATEDLKIIKTWSTLIYDTNAMVARGDSEKTIYIVFRGSSSIRNWIADLTFVPVSYPPVSGTKVHKGFLDSYGEVQNELVATVLDQFKQYPSYKVAVTGHSLGGATALLCALDLYQREEGLSSSNLFLYTQGQPRVGDPAFANYVVSTGIPYRRTVNERDIVPHLPPAAFGFLHAGEEYWITDNSPETVQVCTSDLETSDCSNSIVPFTSVLDHLSYFGINTGLCT
modifications: pro-form
B1: the entries for the “Sav (RP)” value in test [1] (10 minutes in 1.35% (v/v) Savinase in 10 mM succinic acid pH6.5) and in test [1] (60 minutes in 1.35% (v/v) Savinase in 10 mM succinic acid pH6.5) were 0.27 and 0.39, respectively. For the same molecule, the “Det + Sav (RP)” value in test [1] (10 minutes in 1.35% (v/v) Savinase in 77% (w/w) Detergent B) is listed as 0.88; in test [1] (60 minutes in 1.35% (v/v) Savinase in 77% (w/w) Detergent B), 0.85. Besides, the “Det (RP)” value is 0.60 in test [1] (10 minutes in 77% (w/w) Model detergent B) and 0.69 in test [1] (60 minutes in 77% (w/w) Model detergent B). For the same molecule, the “No (RP)” value in test [1] (60 minutes in 10 mM succinic acid pH6.5) is 0.18. The “activation level of the lipase” value in test [1] (Savinase treatment in detergent, after 10 minutes) was “full activation”. Also, in test [2], the “hydrolytic activity on p-nitrophenyl acyl esters” value was “no activity”.

B2: SEQ ID NO: 5 (Lipex): commercial lipase product Lipex (Novozymes A/S), SEQ ID NO: 5 (protein, listed as Thermomyces lanuginosus)
chain: EVSQDLFNQFNLFAQYSAAAYCGKNNDAPAGTNITCTGNACPEVEKADATFLYSFEDSGVGDVTGFLALDNTNKLIVLSFRGSRSIENWIGNLNFDLKEINDICSGCRGHDGFTSSWRSVADTLRQKVEDAVREHPDYRVVFTGHSLGGALATVAGADLRGNGYDIDVFSYGAPRVGNRAFAEFLTVQTGGTLYRITHTNDIVPRLPPREFGYSHSSPEYWIKSGTLVPVRRRDIVKIEGIDATGGNNQPNIPDIPAHLWYFGLIGTCL
As for B2, in test [3], the “With inhibitor RP (wash)” value turned out to be 0.89 and the “No inhibitor RP (wash)” value is 1.00.

B3: SEQ ID NO: 7 (RhimiLip1): lipase of SEQ ID NO: 7, tested for propeptide specificity (protein)
chain: MVSFISISQGVSLCLLVSSMMLGSSAVPVAGHKGSVKATNGTDFQLPPLISSRCTPPSHPETTGDPDAEAYYINKSVQWYQAHGGNYTALIKRDTETVGGMTLDLPENPPPIPATSTAPSSDSGEVVTATAAQIKELTNYAGVAATAYCRSVVPGTKWDCKQCLKYVPDGKLIKTFTSLLTDTNGFILRSDAQKTIYVTFRGTNSFRSAITDMVFTFTDYSPVKGAKVHAGFLSSYNQVVKDYFPVVQDQLTAYPDYKVIVTGHSLGGAQALLAGMDLYQREKRLSPKNLSIYTVGCPRVGNNAFAYYVDSTGIPFHRTVHKRDIVPHVPPQAFGYLHPGVESWIKEDPADVQICTSNIETKQCSNSIVPFTSIADHLTYFGINEGSCL
modifications: Rhizopus microsporus var. chinensis
B3: in test [3], the “With inhibitor RP (wash)” value was 0.92 and the “No inhibitor RP (wash)” value is reported as 1.00.

B4: isolated propeptide: propeptide of RmL, amino acid sequence SEQ ID No: 4, purified from RmL (protein, listed as Rhizomucor miehei)
chain: VPIKRQSNSTVDSLPPLIPSRTSAPSSSPSTTDPEAPAMSRNGPLPSDVETKYGMALNATSYPDSVVQAM
As to B4, the “inhibitory specificity of the isolated propeptide” value in test [3] (320:1 molar ratio with different lipases) is listed as “exclusively effect with RmL”.

B5: SEQ ID NO: 6 (MuciLip2CN): lipase of SEQ ID NO: 6, tested for propeptide specificity (protein)
chain: MVSFVSISQGISLFIVVSSMLTGSAHAAPASSHSNSSKNATTSDASTFTLPPIISSRVTPPKVPSGSHNVEDANVAKNKKWFEAHGGKLNVTKRADETVGGYTMDLPSNAPPLPAVPSTSTVVIASTAQISEFKKYAGIASTAYCRSVVPLNQWSCTNCLKFVPDGKLIKTFTSLVTDTNGFVLRSDAQKTIYVVFRGTNSIRSAITDLVFELTNYTPVSGAKVHTGFYASYKAVVSDYFPAVQSQLTAYPGYKVIVTGHSLGGAQALLAGMDLYQREPRLSKSNLAIYTVGCPRVGNPAFAYYVDSTGITFSRSVNNRDIVPHVPPQAWGFLHPGVEAWARSSSNVQICTPNIETGLCSNSIVPFTSFTDHLTYYDLNEGLCL
modifications: Mucor circinelloides
For the molecule B5, in test [3], the “With inhibitor RP (wash)” value stood at 1.10 and the “No inhibitor RP (wash)” value was found to be 1.00.
